Test results: US20240279288A1, “APPLICATION OF PLANT JAZ PROTEINS AND DERIVED POLYPEPTIDES IN PREVENTION AND TREATMENT OF HUMAN AND ANIMAL TUMORS” (ANYANG INSTITUTE OF SINO-COTTON INDUSTRY INNOVATION, priority 2021, published 2024)

Tests used:
[1] = system: normal breast epithelial cells MCF10A; test: Cell cycle detection (PI DNA content), MCF10A; type: cell-based; conditions: 0.691 μM, 24 h, vs PBS
Procedure: Cell cycle detection: cells were moderately digested by trypsin, and collected by centrifugation with supernatant removed, and then cells were washed with PBS, and collected by centrifugation at 1,500 rpm for 5 minutes to prepare a single-cell suspension (at a concentration of 1×10^6/ml). 1 ml of single-cell suspension was then taken and centrifuged with the supernatant discarded, and then 500 μl of 70% pre-cooled ethanol were added to fix the cells overnight at 4° C. The next day, cells were collected by centrifugation, resuspended with 1 ml of PBS and centrifuged, and then 100 μl of RNase A solution were added to the cell pellet, followed by placement in water bath at 37° C. for 30 min, and then 400 μl of PI staining solution was added and mixed well, followed by incubation at 4° C. in dark for 30 min and detection on the instrument to record under red fluorescence at the excitation wavelength of 488 nm. Specifically, a DNA content detection kit (cell cycle) (Solarbio, Cat. No.: CA1510) was used.

[2] = molecular target: T1, NMYC (Homo sapiens, UniProt P04198); test: Yeast two hybrid with NMYC; type: binding
T1 construct: with the full length of c-Myc and NMYC, respectively; expressed in transfected cells; host or cells: yeast Y2HGold
T1 sequence (P04198 1-464): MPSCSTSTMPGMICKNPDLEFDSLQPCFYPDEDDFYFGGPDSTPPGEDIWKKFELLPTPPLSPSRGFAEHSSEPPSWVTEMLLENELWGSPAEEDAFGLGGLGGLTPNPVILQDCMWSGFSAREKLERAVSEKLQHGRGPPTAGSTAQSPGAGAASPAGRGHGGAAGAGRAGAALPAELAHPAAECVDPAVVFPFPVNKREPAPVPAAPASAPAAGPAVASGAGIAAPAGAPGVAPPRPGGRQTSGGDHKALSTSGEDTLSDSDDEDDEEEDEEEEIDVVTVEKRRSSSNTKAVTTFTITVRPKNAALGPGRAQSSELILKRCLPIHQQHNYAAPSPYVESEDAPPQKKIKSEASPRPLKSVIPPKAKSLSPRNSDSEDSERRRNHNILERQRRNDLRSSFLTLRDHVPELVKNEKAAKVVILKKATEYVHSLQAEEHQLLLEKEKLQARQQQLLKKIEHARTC
Description: […]

B1: GhJAZ1: cotton JAZ1 protein, gene number Gh_A05G0260, sequence SEQ ID No. 4; prokaryotically expressed with His tag, about 30 KD (protein)
chain: MSSCSESTAMKPARSPEKPSFAQTCNLLSQYLKEKGSFGDLSLGMTCNVEANGTPVVPPPTMNLFPLNDKSDDVCGRNGGNPKNLTSMDLFPQQAGLASKDDSPNKLEPQTAPMTIFYGGQVIVFNDFPANKAKEIMLLASNSSSQSNNSFNPIPFTSSIARSPIESSIGVPPTSKPVHPAQRAVPGDLPIARRASLHRFLEKRKDRITAKAPYQINNSAAAPSLSGDNKSWLGLAAQSP
modifications: His tag
notes: prokaryotically expressed with His tag, about 30 KD
[1]
  G2-M phase block in MCF10A cells: no G2-M phase block
[2]
  interaction with NMYC: interacted
